The test deals with Bub3 (recombinant, untagged) (human, UniProt O43684 1-328). As to the kind of experiment: SEC. In general terms: Size exclusion chromatography separates by hydrodynamic size, large species first.

The source of these data is article PMC5640511 (Current Biology, 2017).

Sequence of Bub3 (recombinant, untagged) (O43684 whole entry): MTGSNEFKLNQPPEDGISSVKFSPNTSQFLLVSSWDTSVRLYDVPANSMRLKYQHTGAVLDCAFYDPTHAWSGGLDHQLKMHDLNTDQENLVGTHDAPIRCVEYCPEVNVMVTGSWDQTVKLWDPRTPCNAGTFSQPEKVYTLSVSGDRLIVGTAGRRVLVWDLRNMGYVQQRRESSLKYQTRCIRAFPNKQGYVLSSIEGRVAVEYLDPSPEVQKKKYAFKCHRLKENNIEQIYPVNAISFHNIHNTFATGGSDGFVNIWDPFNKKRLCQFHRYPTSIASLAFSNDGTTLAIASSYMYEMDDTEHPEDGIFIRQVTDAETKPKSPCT

B1: BubR1 1-571 B1-LL (recombinant) (other)
chain: MAAVKKEGGALSEAMSLEGDEWELSKENVQPLRQGRIMSTLQGALAQESACNNTLQQQKRAFEYEIRFYTGNDPLDVWDRYISWTEQNYPQGGKESNMSTLLERAVEALQGEKRYYSDPRFLNLWLKLGRLCNEPLDMYSYLHNQGIGVSLAQFYISWAEEYEARENFRKADAIFQEGIQQKAEPLERLQSQHRQFQARVSRQTLLALEKEEEEEVFESSVPQRSTLAELKSKGKKTARAPIIRVGGALKAPSQNRGLQNPFPQQMQNNSRITVFDENADEASTAELSKPTVQPWIAPPMPRAKENELQAGPWNTGRSLEHRPRGNTASLIAVPAVLPSFTPYVEETARQPVMTPCKIEPSIRRVITISKSEYSVHSSLASKVDVEQVVMYCKEKIYAGVGEFSFEEIRAEVFRKKLKEQREAELLTSAEKRAEMQKQIEEMEKKLKEIQTTQQERTGDQQEETMPTKETTKLQIASESQKIPGMTLSSSVCQVNCCARETSLAENIWQEQPHSKGPSVPFSIFDEFLLSEKKNKSPPADPPRVLAQRRPLAVLKTSESITSNE
As to B1, the binding result is “binds”.
